These results are taken from patent US20250388669A1 (published 2025).

B1: Ly2364 (other)
chain 1: QVQLVQSGAEVKKPGASVKVSCKASGYTFTSYVMHWVRQKPGQGLEWIGYINPYNEGTESTDKFKGRATMTSDKSTSTVYMELSSLRSEDTAVYYCASIYYGYEGTYFGVWGQGTLVTVSSASTKGPSVFPLAPSSKSTSGGTAALGCLVKDYFPEPVTVSWNSGALTSGVHTFPAVLQSSGLYSLSSVVTVPSSSLGTQTYICNVNHKPSNTKVDKKVEPKSCGGGGSGGGGSGGGGSGGGGSGGGGSEVQLVESGGGLVQPGGSLRLSCAASGFTFSTYAMNWVRQAPGKGLEWVGRIRSKYNNYATYYADSVKGRFTISRDDSKNSLYLQMNSLKTEDTAVYYCVRHGNFGNSYVSWFAYWGQGTLVTVSSGGGGSDKTHTCPPCPAPEAAGPSVFLFPPKPKDTLMISRTPEVTCVVVDVSHEDPEVKFNWYVDGVEVHNAKTKPREEQYNSTYRVVSVLTVLHQDWLNGKEYKCKVSNKALPAPIEKTISKAKGQPREPQVYTLPPSREEMTKNQVSLWCLVKGFYPSDIAVEWESNGQPENNYKTTPPVLDSDGSFFLYSKLTVDKSRWQQGNVFSCSVMHEALHNHYTQKSLSLSPGGGGGSGGGGSGGGGSGGGGSQVQLVQSGAEVKKPGASVKVSCKASGYTFAGFEMHWVRQAPGQGLEWMGAIDPKTGGTDYNQKFKDRVTMTRDTSISTAYMELSRLRSDDTAVYYCARDLGYFDVWGQGTLVTVSS
chain 2: QVQLVQSGAEVKKPGASVKVSCKASGYTFTSYVMHWVRQKPGQGLEWIGYINPYNEGTESTDKFKGRATMTSDKSTSTVYMELSSLRSEDTAVYYCASIYYGYEGTYFGVWGQGTLVTVSSASTKGPSVFPLAPSSKSTSGGTAALGCLVKDYFPEPVTVSWNSGALTSGVHTFPAVLQSSGLYSLSSVVTVPSSSLGTQTYICNVNHKPSNTKVDKKVEPKSCGGGGSGGGGSGGGGSGGGGSGGGGSQAVVTQEPSLTVSPGGTVTLTCRSSTGAVTTSNYANWVQQKPGQAPRGLIGGTNKRAPWTPARFSGSLLGGKAALTITGAQAEDEADYYCALWYSNLWVFGGGTKLTVLGGGGSDKTHTCPPCPAPEAAGPSVFLFPPKPKDTLMISRTPEVTCVVVDVSHEDPEVKFNWYVDGVEVHNAKTKPREEQYNSTYRVVSVLTVLHQDWLNGKEYKCKVSNKALPAPIEKTISKAKGQPREPQVYTLPPSREEMTKNQVSLSCAVKGFYPSDIAVEWESNGQPENNYKTTPPVLDSDGSFFLVSKLTVDKSRWQQGNVFSCSVMHEALHNRFTQKSLSLSPGGGGGSGGGGSGGGGSGGGGSDIQMTQSPSSLSASVGDRVTITCRASQDIRSNLNWYQQKPGGAVKLLIYYTSRLHSGVPSRFSGSGSGTDYTLTISSLQPEDFATYFCQQSEKLPRTFGGGTKVEIR
light: EIVLTQSPATLSLSPGERATLSCRASSSVSYMHWYQQKPGQAPRPWIYATSNLASGIPARFSGSRSGTDYTLTISSLEPEDFAVYYCQQWSSNTLTFGGGTKVEIKRTVAAPSVFIFPPSDEQLKSGTASVVCLLNNFYPREAKVQWKVDNALQSGNSQESVTEQDSKDSTYSLSSTLTLSKADYEKHKVYACEVTHQGLSSPVTKSFNRGEC
notes: Tri-specific antibody: B7H3 Fabs, central CD3 Fv, terminal CD137 Fv; Flexible linker is (G4S)5
B2: Ly2365 (other)
chain 1: QVQLVQSGAEVKKPGASVKVSCKASGYTFTSYVMHWVRQKPGQGLEWIGYINPYNEGTESTDKFKGRATMTSDKSTSTVYMELSSLRSEDTAVYYCASIYYGYEGTYFGVWGQGTLVTVSSASTKGPSVFPLAPSSKSTSGGTAALGCLVKDYFPEPVTVSWNSGALTSGVHTFPAVLQSSGLYSLSSVVTVPSSSLGTQTYICNVNHKPSNTKVDKKVEPKSCGGGGSGGGGSGGGGSEVQLVESGGGLVQPGGSLRLSCAASGFTFSTYAMNWVRQAPGKGLEWVGRIRSKYNNYATYYADSVKGRFTISRDDSKNSLYLQMNSLKTEDTAVYYCVRHGNFGNSYVSWFAYWGQGTLVTVSSGGGGSDKTHTCPPCPAPEAAGPSVFLFPPKPKDTLMISRTPEVTCVVVDVSHEDPEVKFNWYVDGVEVHNAKTKPREEQYNSTYRVVSVLTVLHQDWLNGKEYKCKVSNKALPAPIEKTISKAKGQPREPQVYTLPPSREEMTKNQVSLWCLVKGFYPSDIAVEWESNGQPENNYKTTPPVLDSDGSFFLYSKLTVDKSRWQQGNVFSCSVMHEALHNHYTQKSLSLSPGGGGGSGGGGSGGGGSGGGGSQVQLVQSGAEVKKPGASVKVSCKASGYTFAGFEMHWVRQAPGQGLEWMGAIDPKTGGTDYNQKFKDRVTMTRDTSISTAYMELSRLRSDDTAVYYCARDLGYFDVWGQGTLVTVSS
chain 2: QVQLVQSGAEVKKPGASVKVSCKASGYTFTSYVMHWVRQKPGQGLEWIGYINPYNEGTESTDKFKGRATMTSDKSTSTVYMELSSLRSEDTAVYYCASIYYGYEGTYFGVWGQGTLVTVSSASTKGPSVFPLAPSSKSTSGGTAALGCLVKDYFPEPVTVSWNSGALTSGVHTFPAVLQSSGLYSLSSVVTVPSSSLGTQTYICNVNHKPSNTKVDKKVEPKSCGGGGSGGGGSGGGGSQAVVTQEPSLTVSPGGTVTLTCRSSTGAVTTSNYANWVQQKPGQAPRGLIGGTNKRAPWTPARFSGSLLGGKAALTITGAQAEDEADYYCALWYSNLWVFGGGTKLTVLGGGGSDKTHTCPPCPAPEAAGPSVFLFPPKPKDTLMISRTPEVTCVVVDVSHEDPEVKFNWYVDGVEVHNAKTKPREEQYNSTYRVVSVLTVLHQDWLNGKEYKCKVSNKALPAPIEKTISKAKGQPREPQVYTLPPSREEMTKNQVSLSCAVKGFYPSDIAVEWESNGQPENNYKTTPPVLDSDGSFFLVSKLTVDKSRWQQGNVFSCSVMHEALHNRFTQKSLSLSPGGGGGSGGGGSGGGGSGGGGSDIQMTQSPSSLSASVGDRVTITCRASQDIRSNLNWYQQKPGGAVKLLIYYTSRLHSGVPSRFSGSGSGTDYTLTISSLQPEDFATYFCQQSEKLPRTFGGGTKVEIR
light: B1 light
notes: Tri-specific antibody: B7H3 Fabs, central CD3 Fv, terminal CD137 Fv; Flexible linker is (G4S)3
B3: Ly2366 (other)
chain 1: QVQLVQSGAEVKKPGASVKVSCKASGYTFTSYVMHWVRQKPGQGLEWIGYINPYNEGTESTDKFKGRATMTSDKSTSTVYMELSSLRSEDTAVYYCASIYYGYEGTYFGVWGQGTLVTVSSASTKGPSVFPLAPSSKSTSGGTAALGCLVKDYFPEPVTVSWNSGALTSGVHTFPAVLQSSGLYSLSSVVTVPSSSLGTQTYICNVNHKPSNTKVDKKVEPKSCGGGGSGGGGSEVQLVESGGGLVQPGGSLRLSCAASGFTFSTYAMNWVRQAPGKGLEWVGRIRSKYNNYATYYADSVKGRFTISRDDSKNSLYLQMNSLKTEDTAVYYCVRHGNFGNSYVSWFAYWGQGTLVTVSSGGGGSDKTHTCPPCPAPEAAGPSVFLFPPKPKDTLMISRTPEVTCVVVDVSHEDPEVKFNWYVDGVEVHNAKTKPREEQYNSTYRVVSVLTVLHQDWLNGKEYKCKVSNKALPAPIEKTISKAKGQPREPQVYTLPPSREEMTKNQVSLWCLVKGFYPSDIAVEWESNGQPENNYKTTPPVLDSDGSFFLYSKLTVDKSRWQQGNVFSCSVMHEALHNHYTQKSLSLSPGGGGGSGGGGSGGGGSGGGGSQVQLVQSGAEVKKPGASVKVSCKASGYTFAGFEMHWVRQAPGQGLEWMGAIDPKTGGTDYNQKFKDRVTMTRDTSISTAYMELSRLRSDDTAVYYCARDLGYFDVWGQGTLVTVSS
chain 2: QVQLVQSGAEVKKPGASVKVSCKASGYTFTSYVMHWVRQKPGQGLEWIGYINPYNEGTESTDKFKGRATMTSDKSTSTVYMELSSLRSEDTAVYYCASIYYGYEGTYFGVWGQGTLVTVSSASTKGPSVFPLAPSSKSTSGGTAALGCLVKDYFPEPVTVSWNSGALTSGVHTFPAVLQSSGLYSLSSVVTVPSSSLGTQTYICNVNHKPSNTKVDKKVEPKSCGGGGSGGGGSQAVVTQEPSLTVSPGGTVTLTCRSSTGAVTTSNYANWVQQKPGQAPRGLIGGTNKRAPWTPARFSGSLLGGKAALTITGAQAEDEADYYCALWYSNLWVFGGGTKLTVLGGGGSDKTHTCPPCPAPEAAGPSVFLFPPKPKDTLMISRTPEVTCVVVDVSHEDPEVKFNWYVDGVEVHNAKTKPREEQYNSTYRVVSVLTVLHQDWLNGKEYKCKVSNKALPAPIEKTISKAKGQPREPQVYTLPPSREEMTKNQVSLSCAVKGFYPSDIAVEWESNGQPENNYKTTPPVLDSDGSFFLVSKLTVDKSRWQQGNVFSCSVMHEALHNRFTQKSLSLSPGGGGGSGGGGSGGGGSGGGGSDIQMTQSPSSLSASVGDRVTITCRASQDIRSNLNWYQQKPGGAVKLLIYYTSRLHSGVPSRFSGSGSGTDYTLTISSLQPEDFATYFCQQSEKLPRTFGGGTKVEIR
light: B1 light
notes: Tri-specific antibody: B7H3 Fabs, central CD3 Fv, terminal CD137 Fv; Flexible linker is (G4S)2
B4: Ly1612 (antibody, V domains shown)
VH: QVQLVQSGAEVKKPGASVKVSCKASGYTFTSYVMHWVRQKPGQGLEWIGYINPYNEGTESTDKFKGRATMTSDKSTSTVYMELSSLRSEDTAVYYCASIYYGYEGTYFGVWGQGTLVTVSS
VL: EIVLTQSPATLSLSPGERATLSCRASSSVSYMHWYQQKPGQAPRPWIYATSNLASGIPARFSGSRSGTDYTLTISSLEPEDFAVYYCQQWSSNTLTFGGGTKVEIK
notes: Parent mAb; also called Anti-B7H3 Ly1612; B7H3 mAb

This assay concerns the target T1, B7H3 (human, UniProt Q5ZPR3 29-466, limits assumed).
T1 sequence (looked up): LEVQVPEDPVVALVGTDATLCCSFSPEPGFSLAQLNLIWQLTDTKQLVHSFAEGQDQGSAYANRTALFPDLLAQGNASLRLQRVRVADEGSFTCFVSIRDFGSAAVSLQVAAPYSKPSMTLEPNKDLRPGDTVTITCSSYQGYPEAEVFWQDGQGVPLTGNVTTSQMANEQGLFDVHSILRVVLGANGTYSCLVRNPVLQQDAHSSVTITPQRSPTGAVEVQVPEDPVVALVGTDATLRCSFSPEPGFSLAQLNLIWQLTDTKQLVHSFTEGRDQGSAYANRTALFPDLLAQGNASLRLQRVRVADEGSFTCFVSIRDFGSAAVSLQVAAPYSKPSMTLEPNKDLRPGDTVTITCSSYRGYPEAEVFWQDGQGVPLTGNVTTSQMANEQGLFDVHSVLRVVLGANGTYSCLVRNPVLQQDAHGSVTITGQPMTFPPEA
Kind of assay: ELISA or FCM (Example 2). (An ELISA detects its analyte on a solid surface through an enzyme-linked reagent.)
Take B1: the binding result is “binds”.

With B2, the binding result is “binds”.

As for B3, the binding result was “binds”.

On to B4, for which the binding result is listed as “binds”.
